Results on one molecule are retold here after patent publication US20070141060A1, “Hmgb1 protein inhibitors for the regulation of smooth muscle cells and endothelial cells profileration” (BIO3 RESEARCH SRL, priority 2004, published 2007).

Holding throughout (format): cell-based
Assay [1] concerns bovine smooth muscle. Briefly: Proliferation of bovine smooth muscle cells (cell counting). The procedure: (§1) Bovine aorta endothelial cells or bovine smooth muscle at an early passage were cultured in DMEM+10% FCS. Cells were then kept for 16 hours in DMEM in absence of FCS, and plated in 6 cm wells of 6-well plates (about 50 000 cells per well). Cells were then cultured, in triplicate, in the presence of DMEM alone, DMEM+10% FCS, or DMEM+different concentrations of HMGB1. At 24 hours intervals cells were counted under the microscope.

Assay [2] concerns Bovine aorta endothelial cells. The assay can be described thus: Proliferation of bovine aorta endothelial cells (cell counting). Particulars: DMEM + different concentrations of HMGB1, no FCS; cells counted at 24 hours intervals; FIG. 1. The procedure: as §1
Assay [3] has as its system 3T3 mouse fibroblasts. Briefly: Proliferation of 3T3 mouse fibroblasts in similar conditions. Particulars: data not shown.

B1: HMGB1: HMGB1 protein, released after mechanical injury of cells; induces smooth muscle cell and endothelial cell proliferation (protein, UniProt P09429 1-215, looked up)
High mobility group protein B1: MGKGDPKKPRGKMSSYAFFVQTCREEHKKKHPDASVNFSEFSKKCSERWKTMSAKEKGKFEDMAKADKARYEREMKTYIPPKGETKKKFKDPNAPKRPPSAFFLFCSEYRPKIKGEHPGLSIGDVAKKLGEMWNNTAADDKQPYEKKAAKLKEKYEKDIAAYRAKGKPDAAKKGVVKAEKSKKKKEEEEDEEDEEDEEEEEDEEDEDEEEDDDDE
Regarding B1, the “cell division / proliferation of BSMC” value in assay [1] (DMEM + different concentrations of HMGB1, no FCS, single addition, cells counted at 24 hours intervals, FIG. 1) is reported as “a couple of rounds of division in BSMC, followed by quiescence”. Further, the “cell proliferation of BSMC on repeated addition” value in assay [1] (repeated addition of HMGB1 every 24 hours, data not shown) is given as “keep proliferating”. Besides, in assay [2], the “cell division / proliferation of BAEC” value was “keep dividing”. The “proliferation of 3T3 mouse fibroblasts” value in assay [3] is listed as “does not cause the proliferation”.
